Results: doi:10.1101/2022.05.03.490446 (bioRxiv, 2022)
Where two headings read alike, the source gives them in different places.

Assays:
[1] = target: T1, GroEL (E. coli, UniProt P0A6F5 1-548); assay: SEC
[2] = target: T1, GroEL; assay: atomic force microscopy
[3] = target: T1, GroEL
[4] = target: T1, GroEL; assay: fluorescence polarisation + other fluorescence titration
[5] = target: T1, GroEL; assay: other fluorescence titration

T1 sequence (P0A6F5 whole entry): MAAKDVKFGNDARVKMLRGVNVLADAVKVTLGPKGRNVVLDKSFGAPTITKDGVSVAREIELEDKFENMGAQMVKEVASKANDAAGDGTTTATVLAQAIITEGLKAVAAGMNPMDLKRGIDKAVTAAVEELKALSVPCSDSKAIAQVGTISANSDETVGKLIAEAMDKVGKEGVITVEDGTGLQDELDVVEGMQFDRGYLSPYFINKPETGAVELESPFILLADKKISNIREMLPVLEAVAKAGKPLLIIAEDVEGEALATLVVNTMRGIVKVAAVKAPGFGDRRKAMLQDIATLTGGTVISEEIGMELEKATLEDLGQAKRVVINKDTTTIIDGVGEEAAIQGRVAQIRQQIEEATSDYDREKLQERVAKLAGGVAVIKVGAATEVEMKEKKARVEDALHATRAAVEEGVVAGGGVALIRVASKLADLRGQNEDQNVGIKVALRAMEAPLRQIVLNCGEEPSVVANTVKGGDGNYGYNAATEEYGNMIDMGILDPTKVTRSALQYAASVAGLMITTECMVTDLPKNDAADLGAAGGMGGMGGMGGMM

Molecule: CnoX (from UniProt P77395 1-284) (natural protein)
- stoichiometry N (GroEL:CnoX molar ratio) [1]: 14
- specific binding force [2]: 175 pN

Molecule: fluorescein-labeled CnoX (from UniProt P77395 1-284) (natural protein)
- Kd [3]: 350 nM
- Kd [4]: 310 nM

B1: GroES (natural protein)
chain: MNIRPLHDRVIVKRKEVETKSAGGIVLTGSAAAKSTRGEVLAVGNGRILENGEVKPLDVKVGDIVIFNDGYGVKSEKIDNEEVLIMSESDILAIVEA
- Ki [5]: 47 nM
